Patent US12351605B2, “Optically controllable FGFR stimulation using wireless controlled cellular lighting system” (THE JOHNS HOPKINS UNIVERSITY, priority 2020, dated 2025)
Like-named read-outs stand apart in the source and are kept apart here.

What was measured:
[1] = tested on: FGF signaling pathway; assay: Western blot of ERK1/2 and MEK phosphorylation in Opto-FGFR hESCs; assay type: cell-based, human; details: 10 ng/mL FGF2 after 24 h FGF2 starvation; 15 min intervals up to 120 min
Procedure: Western blot analysis. The phosphorylation status of MEK and ERK1/2 were determined by Western blot analysis. The cells were starved from FGF2 protein for 24 h, and then exposed to either FGF2 protein or blue light illumination. One μg aliquots of whole cell lysates were loaded onto 4-20% gradient SDS-PAGE gels and then transferred to nitrocellulose membranes (Bio-Rad) using the Trans-Blot® Turbo™ Transfer System (Bio-Rad). The detection of phosphorylated ERK1/2 proteins (42 and 44 kDa) was performed using a phospho-ERK1/2 antibody (Cell Signaling), total ERK1/2 expression level was determined using a total […] antibody (Cell Signaling), detection of pMEK protein (45 kDa) was performed using a pMEK1/2 antibody (Cell Signaling), and total MEK expression level was determined using a total MEK1/2 antibody (Cell Signaling). The expression levels are quantified by normalizing to GAPDH expression (Cell Signaling). Following the primary antibody incubation, the membranes were incubated with the appropriate secondary antibodies and subsequently visualized with an ECL kit (Pierce).
Generation of a light-inducible FGF signaling system. […]

[2] = daily feeding condition, cited from earlier work

FGF2: recombinant fibroblast growth factor 2 protein, medium component for maintaining pluripotency of PSCs
activation of FGF signaling (phosphorylation of ERK1/2 and MEK) [1]: activated FGF signaling | decrease of FGF2 protein concentration ([2]; 4 h after the initial feeding): approximately 40% | decrease of FGF2 protein concentration ([2]; 24 h after the initial feeding): approximately 10%
